Results taken from the DeepSol protein solubility set.

assay: soluble on expression in E. coli; label from the status in PepcDB or PDB records

| Sequence | soluble on expression in E. coli |
| --- | --- |
| MSALLEVTNLHKDFVTRSGFLRKQIQHAVKPVSFTLEAGQTIGFIGQNGSGKSTLARMLAGMVAPTGGEIRVNGELLEHKDYSTRCKLIRMIFQDPNTSLNPRLQIGTILEGPLKRNTSMTPEARMRRVKDTLQRVGLLPEHAYFYPQMLATGQKQRVCLARALILQPSIIIADEALNGLDMAMRSQILNLFLELQEEMGVSFVYVSQHIGVIKHITDKIIVMHEGDVVESGETHEVLADPQHPITQRMIESHFTKAPTFKY | not soluble |
| MSAPSRTVLRELTATKYVANYTDEYQLETARAGCSALPPQPNINHDAIIEGHGEDVELVEDKNYRSLHRIDETPKLVDKKPSKAIIRDEAVKVLRDIQTMPIENLRLKRYDFFSQRWFNTTRESEKALVEHVLLHPNQRPHYFAAQCRMLSAEDISSLILTSLLAEPKETGQNVVRFAIQAKTAMPFQQLFAILEKLEMEIEGFQMTDSFVVATLIRSQSKSTTTRRLRTTNCREYGNLEPGLDSQGRLMASTASITCSIRGKRHVETRIVYNNNSSARDPFRRYRYIELEQTVKCMNRRVQIVEEPVEFHEFEVENDMVSLRNGMVLVDDLISFLETFELDEE | not soluble |
| MSAPVADAPAAEIVYKIISSDGVVSKMSEKAVQQSKTLSNLIENLGYTIENIETRDPIPVTNVNGKTMAKVAELCEKHKADAIPEDNMNVLKTLTIPEWDQKFLKIEDEALFDLILASNFLDIKGLMYYGCKTVSNMAKGKTTAELREIFGINTDEQDAAEETAQKAAAEVA | not soluble |
| MSAQTDPGYFFMPNHIILIGASEQPYSLGERVLSNLLSTPFQGKITPVNPRHHTIAGLPAYTSLNKIPGNADLIIAVTLPDSYDTLFKTCRKKQLRHIILIQDWDNLSAAELHTAETAIRKHHGNGLNITACTTAGIQLPSLGLNISTQDGYAAGHTAILTGNAAVSRQIDNILNKLRQGTSRHISLHPGISPITSADWLNRFGHSLHTKTAVLHHNPEEDQRKLFSAIRQFTRHTPLILHITCRTTETDRAVLHCLARHCNFLVSFNADDLEAALRAQLSDLPPLSRLDILSDTPAEWLHAHAPKNLTLHFPNLPHHIRNGHLTGTPTPSICHDIASRQLAHPDTQAVLTILSPSGHEDYKKTARALIRLSEQTAKPLLVSSPFSDGITHFDTPTQAIRTLSYRNTAAALKQAQLDIAPPQPCRLKTPQPQNIKKALAAANPSLLAEALHLPPYRHTTHNAVQFQFDSHPLYGDILTARCNGQTTAVLPPFTTLDSRHLARFAELDGTQTLDQFLHTLTVIPEYRQHILGITLNLNGGQYSSDFLLKTPETHDTPKRKNTGKAAQTLEHAAAKMQSAAAYLKHKNPTAAEFLRHTSEAAAELLGSKTETGAAVPNVLAPYPAAYPKTLSLRNNTTVTITPILPEDAEAKQQFVRSLGPEARYTRFMTHTNELPAATLARLCNPDYHCEAAWTAKDADSNIVAVVRHSRLNRNECEFGITLAEHMRGSGLAQKMMELIIQTAAQQGYRTMSADILKTNTPMIKLAEKSGFTLKESDTEKNLYRAYLNLAADKTTEKTNKNLRTDHKIT | not soluble |
| MSARKLFYLGPQGTFTHQAAVNAAQELARFEPQGFDLMPMDDVPQILDAAQHGDGWGIVAWENNVEGYVVPNLDALIDAKDLVGFARVGVNVEFDAYVAQGADPAEARIATAHPHGLAQCKRFIAEHRLSTQPATSNAAACRDLIPGEIAFGPAICGELYDITRIGTAIQDYQGAATDFLVLSPRAE | not soluble |
| MSATAGRVVRAGQHAVRTVAPIKSNNSAEARMSVLAAYKEFQRLTPKFWWDFGLHDMPLGVFRAVIKKQFTKNGHLTDVRVVDRLVGETHQHMKSIRYAFYNPDHVRNYLFAENVEAKPKDFLSKFLNGKE | not soluble |
| MSATINDLASFNKFFTENQHRFIRFAWTYTRDEVVAEDIVMESLMAYWENRDHMTPEINPAAYVLTVVKNKCLNYLRHLQLVNDVSDRVASHSEWELSNRIATLDACEPNALFASEVQDIIDRVISRLSATTARIFLLSRYDNKSHKEIAEIMGMTVKGVEFHISKATKELRVALKDYLVLFPFLCDFLSRN | not soluble |
| MSATTTLKEQVLTTLKREQANAVVMYLNYKKYHWLTYGPLFRDLHLLFEEQGSEVFAMIDELAERSLMLDGQPVADPADYLKVATVTPSSGQLTVKQMIEEAIANHELIITEMHQDAEIATEAGDIGTADLYTRLVQTHQKHRWFLKEFLAKGDGLVS | soluble |
| MSAVSYSMHRTTTTTSSSSHGGVSAGHAAEEFVASAEREKQEMQQLNSRLEVYISRVRQLEDRNKELVIELDTLRGSLGNDIGQIKFKFNDSLVKVRREISEAHSGTIGVEVKVDRLRDDLNDYRHRYEEARREVEREKTTWGGAISQAQAELDTNKSRYAAILDEEKRLYAEQDQLYLQLAAAKDELDAAIVDRRRLQAEEDDLKIELEFLGRIHSQEITELRTLLAQAPADTREFFKNELALAIREIKAEYDKIIQTTRVDLETIFQSKISAVESSIVSKNEAAVFRQEEIRKMNESITTLRAKLSELEARNSALEREANTLQIQLGEDQRAYESELHKRDNALRFMREDCQTLIAELQALLNTKQTLDTEIAIYRKLVESEEGRFTHVGQGVVVAQQETTRLVPVEQDHWDSGEVQTRSSFKRHAKGNVSIVECDPQGKYIILENTSGSVAEDVSNFEIRRVIDGVQAFVFRLPSHLVIQQHGHLKIYGRNSGGINSPPDSIVMESHPSWGQGGQVETFLYNSHGIEKASHIQTTVASSR | not soluble |
| MSCFVTVGSTLFEDLINQVLCEASLENLKKIGVKKIRLQIGKGNFNQDVIDRVFGETSGDEGSVKCDGLDIDYYRYKPSLSEDMAEALIVIGHGGAGTCLEVLALHLPFITVTNDKLMDNHQAELAVQLSDEGYLLQCTPSTLPETILKENLFSLRQFAAPSKKFVAEHIKQLVGIKNH | not soluble |
| MSCTTDKLIQKYDALVRKTTEHKFAKELCAGTLKDRSLYIYLSQDLQFFETSLRLICKTTSLAPTTHALITLAKKIGFFSNDENSYFHDCLELLAPSLTKEERDNFDNKAIPGVDAYINFLDELRKDASITWPSLVTSLWVAEELYWRWARDTPRAPGLHWKYQKWIDLHDGEHFQTWCEFLKAEVDKFPVEEVESIFVKVSQFEFEFFESCYNA | not soluble |
| MSDADSQKQIKLTSSDDKTFTVSRKVISQSKTITDIIQNLGIEESGSTSEDTIPLQKVTSTILEKIITWCEHHADDEPKKVDENKKTVDISEWDAEFMKVDQGTLFEIILAANYLDIRGLLDVTTQNVANMMKGKTPSQIRTLFNIENDFSEEEREAMKKENAWCED | not soluble |
| MSDAPTVVAYLGPAGTFTEEALYKFADAGVFGDGEIEQLPAKSPQEAVDAVRHGTAQFAVVAIENFVDGPVTPTFDALDQGSNVQIIAEEELDIAFSIMVRPGTSLADVKTLATHPVGYQQVKNWMATTIPDAMYLSASSNGAGAQMVAEGTADAAAAPSRAAELFGLERLVDDVADVRGARTRFVAVQAQAAVSEPTGHDRTSVIFSLPNVPGSLVRALNEFAIRGVDLTRIESRPTRKVFGTYRFHLDISGHIRDIPVAEALRALHLQAEELVFVGSWPSNRAEDSTPQTDQLAKLHKADEWVRAASEGRKLN | soluble |
| MSDASKRAAFDQYGHAGVDPSMGGGGAGFGGANFSDIFGDVFSDFFGGGGRGGGRGGAQRGSDLRYTLELNLEEAVRGTTVSIRVPTLVNCQPCDGSGAKKGSTPSTCPTCGGIGQVRMQQGFFSVQQTCPRCHGQGKIITDPCTSCHGEGRVEEYKTLSVKVPAGVDTGDRIRLSGEGEAGTHGGPTGDLYVVISVREHEIFQRDGKHLYCEVPISYTDAALGGELEVPTLDGRVKLKIPEGTQTGKQFRLRGKGVAPVRGGGAGDLLCRVAVETPVNLSRRQRELLEELRDSLEGDSSHSPKASGWFDGVKRFFGDLLEHHHHHH | not soluble |
| MSDDESIFVPDENSAQVSAETTVKCYRTDSASSQKVINNLEKFVLNQSLDKSYKKIASDGIASSKRTLESLLARNGGHQNLLNEEVNKLNNKNYTLDADGRVCLVKNSSNDTSRHQELILLQKDTHELRCLREYLMLALEAIMHNHRQMMVKHVQNVRERPRQVSQAAIDNAIVSSAFGLFIEAFYSFLFQEKANTRIIDEFAQMTLFVDQSIAREEIRSENRRKLKKTIEIETFLMRMMLEMEDIREANVKDLVSLWRSHQRSAKTQPTNNNAAGDSTN | not soluble |
| MSDKVQTMASAIYRELETMIKVHGEDGVKTLMPLVVNVLEALDLAYLERDEQTAELEMLKEDNEQLQTQYEREKALRKQTEQKYIEIEDTLIGQNKELDKKIESLESIMRMLELKAKNATDHASRLEEREVEQKLEFDRLHERYNTLLRTHVDHMERTKYLMGSEKFELMQNMPLPNMQLRNKMGMAASVDASSIRGVSDLISAHMTQSTTMDVNLANHITNEDWQDEFSSDIEPSPRDIPQSSADALTSPITTKEPTPKREAASPKQSEEEEADETTSVDPKENNDLLGADLTGNLVDPAEFASAVNDTFIGMGREVENLIKENSELLDMKNALNIVKNDLINQVDELNSENMILRDENLSRQMVSEKMQEQITKHEEEIKTLKQKLMEKENEQEEDDVPMAMRKRFTRSEMQRVLMDRNAYKEKLMELEESIKWTEMQRAKKMQQQQQNVNQKKSGGIWEFFSSLLGDSVTPPASSRGNRASSSRGKMTRSVEYIDPDMISERRAAERREQYKLVREHVKKEDGRIEAYGWSLPNVEAEVSSVPIPVCCRPLLDNEPSLKIWCATGVVLRGGRDERGQWIVGDPIYFAPASMKKTKTSNHRPELEDEIKRARNLDARESELDEWQSSSLVWVVSSNQGKSLIAVLDANNPNNIIETFPACDSHLLCIQAVSGVMEGEPEMNEEQSKKYLSGGGKIKDLPEGLDGTDLGACEWVELRKMEDSEDGVPTYCSNDMKPSPKRTRDFSISEVAPVDSSAPVKEDPLPPPANRPGGRAALPPHIRDAMSKYDGVSGQMSGALPTVWMGGQNQYIYIHSAVTAWKQCLRRIKMPDAVLSIVHYKSRIFAALANGTIAIFHRNKHGEWSDEGYHSLRVGSATSSVRSLCLVSTNIWATYKNCVVVLDAESLQIVKVFAAHPRKDSQVRNMQWVGAGVWLSIRLDSTLRLYHAHTYEHLQDVDIEPYVTKMLGTSKLDFSYMRTTALLVSNRRLWIGTGTGVIISVPFSGQLEKKIETKDSKRPAGPGGLVRVYGATSENATNDEKTNDDFIPYCNLAHAQLSFHGHKDSVKFFLGVPGASKNGEDESAEVTLRRMLIMSGGDGYIDFRIGEENEPELTGQSIRPRDMSHLIIWEVDAELPILSK | not soluble |
